These results are taken from patent US20170022268A1 (published 2017).

Where no end group is shown, it is not given here. [ ]: non-standard residue; d: D form. pGlu = O=C1CC[C@@H](C(=O)O)N1

For assay [1], the target named is T1, pyroglutamated human Aβ3-11 with the addition of a C-terminal cysteine residue, pE-FRHDSGYE-C (not fully specified).
T1 peptide: [pGlu]FRHDSGYEC
Put plainly: Biacore SPR; overall KD. For orientation: Surface plasmon resonance follows binding to a sensor surface in real time, without labels.

For assay [2], the target named is T1, pyroglutamated human Aβ3-11 with the …. Put plainly: Biacore SPR; KD1 (first binding step).

B1: monoclonal antibody 2E8 (antibody, V domains shown)
VH: QIQLQQSGPDLVKPGASVKISCKASGYTFTDYYINWVKQKPGQGLEWIGWLNPGSGNTKYNEKFKGKATMTVDTTSSTVYMQLSSLTSEDSAVYFCTREGPIDYWGRGTSVTVSS
VL: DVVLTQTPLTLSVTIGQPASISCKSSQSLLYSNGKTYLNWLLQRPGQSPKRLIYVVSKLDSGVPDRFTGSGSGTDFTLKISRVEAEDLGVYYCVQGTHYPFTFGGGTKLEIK
Usually Kd stands for the free concentration of one partner at which half of the binding sites on the other are occupied at equilibrium, for simple one-to-one binding. Read a high Kd as a looser complex. Consider B1, for which the Kd is 64 nM in assay [1] and 3.46 nM in assay [2].

B2: monoclonal antibody 5C9 (antibody, V domains shown)
VH: QIQLQQSGPELVKPGAAVKISCKASGYTFTDYYLNWVKQKPGQGLEWIGWIYPGSGNVKYNEKFKGKATLTADTSSNTAHMQLSSLTSEDTAVYFCTREGLIVYWGQGTLVTVSA
VL: DVVLTQTPFTLSVTIGQPASISCKSSQSLLHSNGESYLNWLFQRPGQSPKRLIYAVSKLDSGVPDRFTGSGSGTDFTLKISRVEAEDLGVYYCVQGTHFPFTFGGGTKLEIK
On to B2, for which the equilibrium dissociation constant (Kd) turned out to be 8.2 nM in assay [1] and 0.116 nM in assay [2].
